T1: rat CNTF receptor on rat superior cervical ganglia (SCG) neurons (rat, UniProt Q08406 23-342)
T1 construct: whole, on cells; also called rat receptor; SCGs
T1 sequence (looked up): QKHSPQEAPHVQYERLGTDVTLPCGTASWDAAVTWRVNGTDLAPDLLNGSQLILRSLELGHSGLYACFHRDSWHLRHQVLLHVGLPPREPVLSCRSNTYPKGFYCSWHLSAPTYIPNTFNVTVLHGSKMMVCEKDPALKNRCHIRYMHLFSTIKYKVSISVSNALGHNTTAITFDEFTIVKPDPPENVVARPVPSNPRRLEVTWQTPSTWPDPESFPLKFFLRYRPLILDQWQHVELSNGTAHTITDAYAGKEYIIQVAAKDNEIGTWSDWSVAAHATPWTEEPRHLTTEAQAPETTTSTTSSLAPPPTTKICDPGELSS

T2: human CNTF receptor alpha component on MG87/CNTFR fibroblasts (human, UniProt P26992 23-342)
T2 construct: whole, on cells; Mouse fibroblast line transfected with the human CNTFalpha receptor gene; also called CNTFRalpha; MG87/huCNTFR
T2 sequence (looked up): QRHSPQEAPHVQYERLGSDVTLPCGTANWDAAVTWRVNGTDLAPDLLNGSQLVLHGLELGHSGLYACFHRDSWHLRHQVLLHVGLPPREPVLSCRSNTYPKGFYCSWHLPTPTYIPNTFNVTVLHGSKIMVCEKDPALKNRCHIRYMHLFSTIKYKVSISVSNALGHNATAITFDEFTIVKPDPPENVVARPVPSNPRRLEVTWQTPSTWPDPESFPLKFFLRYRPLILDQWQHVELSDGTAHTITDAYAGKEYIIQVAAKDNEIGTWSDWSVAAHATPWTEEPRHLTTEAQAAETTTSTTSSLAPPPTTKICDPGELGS

B1: recombinant rat CNTF (ciliary neurotrophic factor) (ligand)
chain: AFAEQTPLTLHRRDLCSRSIWLARKIRSDLTALMESYVKHQGLNKNINLDSVDGVPVASTDRWSEMTEAERLQENLQAYRTFQGMLTKLLEDQRVHFTPTEGDFHQAIHTLMLQVDAFAYQLEELMVLLEQKIPENEADGMPATVGDGGLFEKKLWGLKVLQELSQWTVRSIHDLRVISSHQMGISALESHYGAKDKQM
notes: also called unlabelled rat CNTF
B2: recombinant human CNTF (ciliary neurotrophic factor) (ligand)
chain: AFTEHSPLTPHRRDLCSRSIWLARKIRSDLTALTESYVKHQGLNKNINLDSADGMPVASTDQWSELTEAERLQENLQAYRTFHVLLARLLEDQQVHFTPTEGDFHQAIHTLLLQVAAFAYQIEELMILLEYKIPRNEADGMPINVGDGGLFEKKLWGLKVLQELSQWTVRSIHDLRFISSHQTGIPARGSHYIANNKKM
notes: Position numbers (C17, Q63) count the methionine as 1; also called rHCNTF; hCNTF

Tests used:
[1] = target: T1, rat CNTF receptor on rat superior …; assay: displacement of 125I-rat CNTF from rat SCG neuron monolayers
[2] = target: T2, human CNTF receptor alpha component on …; assay: displacement of 125I-rat CNTF from MG87/CNTFR cells (human CNTF receptor)
Method: MG87/CNTFR is a fibroblast cell line transfected with the human CNTFα receptor gene (Squinto, et al., 1990, Neuron 5:757–766; Davis et al., 1991, Science 253:59–63). Binding Assays Binding was performed directly on cell monolayers. Cells in culture wells were washed once with assay buffer consisting of phosphate buffered saline (PBS; pH 7.4), 0.1 mM bacitracin, 1 mM PMSF, 1 µg/ml leupeptin, and 1 mg/ml BSA. […] Non-specific binding was determined in the presence of 1,000-fold excess of unlabelled CNTF. Specific binding towards MG87/CNTFR was 80–90%. Data were analyzed using the […] program (ISI, Philadelphia, Pa.).

| Binder | IC50 [1] [µM] | IC50 [2] [µM] | fold less potent than unlabelled rat CNTF in displacing 125I-rat CNTF [1] [fold] | fold less potent than rat CNTF [2] [fold] |
| --- | --- | --- | --- | --- |
| B1 | 0.00028 | 0.0028 |  |  |
| B2 | 0.025 | 0.03 | 90 | 12 |

Reference: patent US6440702
